# Laboratory results published in the RNAGym collection of RNA variant scans (doi:10.1021/acssynbio.7b00057).
# B1: Pistol ribozyme (parent)
# chain: GGGUCGUUGUUCCAUAAUCGCGUGGAUAUGGCACGCAAGUUUCUACCGGGCACCGUAAAUGUCCGACUGGAGCCGUUCGGGCGGCUAUAAACAGACCUCAGGCCCGAAGCGUGGCGGCACCUGCCGCCGGUGGUAAAAAAGAUCGGAAGAGCACACGUCU
# Variants of: B1
# Test: aptazyme ON/OFF ratio, guanine; higher = stronger switching; co-transcriptional cleavage with and without guanine
row,Variant,aptazyme ON/OFF ratio
1,GGGUCGACCUUCCAUAAUCGCGUGGAUAUGGCACGCAAGUUUCUACCGGGCACCGUAAAUGUCCGACUGGAGCCGUUCGGGCGGCUAUAAACAGACCUCAGGCCCGAAGCGUGGCGGCACCUGCCGCCGGUGGUAAAAAAGAUCGGAAGAGCACACGUCU [U7A U8C G9C],1.08
2,GGGUCGACAUGUGAUAAUCGCGUGGAUAUGGCACGCAAGUUUCUACCGGGCACCGUAAAUGUCCGACUGGAGCCGUUCGGGCGGCUAUAAACAGACCUCAGGCCCGAAGCGUGGCGGCACCUGCCGCCGGUGGUAAAAAAGAUCGGAAGAGCACACGUCU [U7A U8C G9A U11G C12U C13G],1.22
3,GGGUCGACAUGUAAUAAUCGCGUGGAUAUGGCACGCAAGUUUCUACCGGGCACCGUAAAUGUCCGACUGGAGCCGUUCGGGCGGCUAUAAACAGACCUCAGGCCCGAAGCGUGGCGGCACCUGCCGCCGGUGGUAAAAAAGAUCGGAAGAGCACACGUCU [U7A U8C G9A U11G C12U C13A],1.28
4,GGGUCGACAUGUUAUAAUCGCGUGGAUAUGGCACGCAAGUUUCUACCGGGCACCGUAAAUGUCCGACUGGAGCCGUUCGGGCGGCUAUAAACAGACCUCAGGCCCGAAGCGUGGCGGCACCUGCCGCCGGUGGUAAAAAAGAUCGGAAGAGCACACGUCU [U7A U8C G9A U11G C12U C13U],1.32
5,GGGUCGACAUGGCAUAAUCGCGUGGAUAUGGCACGCAAGUUUCUACCGGGCACCGUAAAUGUCCGACUGGAGCCGUUCGGGCGGCUAUAAACAGACCUCAGGCCCGAAGCGUGGCGGCACCUGCCGCCGGUGGUAAAAAAGAUCGGAAGAGCACACGUCU [U7A U8C G9A U11G C12G],1.24
6,GGGUCGACAUGUCAUAAUCGCGUGGAUAUGGCACGCAAGUUUCUACCGGGCACCGUAAAUGUCCGACUGGAGCCGUUCGGGCGGCUAUAAACAGACCUCAGGCCCGAAGCGUGGCGGCACCUGCCGCCGGUGGUAAAAAAGAUCGGAAGAGCACACGUCU [U7A U8C G9A U11G C12U],1.79
7,GGGUCGACAUGACAUAAUCGCGUGGAUAUGGCACGCAAGUUUCUACCGGGCACCGUAAAUGUCCGACUGGAGCCGUUCGGGCGGCUAUAAACAGACCUCAGGCCCGAAGCGUGGCGGCACCUGCCGCCGGUGGUAAAAAAGAUCGGAAGAGCACACGUCU [U7A U8C G9A U11G C12A],1.11
8,GGGUCGACAUGAAAUAAUCGCGUGGAUAUGGCACGCAAGUUUCUACCGGGCACCGUAAAUGUCCGACUGGAGCCGUUCGGGCGGCUAUAAACAGACCUCAGGCCCGAAGCGUGGCGGCACCUGCCGCCGGUGGUAAAAAAGAUCGGAAGAGCACACGUCU [U7A U8C G9A U11G C12A C13A],1.22
9,GGGUCGACAUGAUAUAAUCGCGUGGAUAUGGCACGCAAGUUUCUACCGGGCACCGUAAAUGUCCGACUGGAGCCGUUCGGGCGGCUAUAAACAGACCUCAGGCCCGAAGCGUGGCGGCACCUGCCGCCGGUGGUAAAAAAGAUCGGAAGAGCACACGUCU [U7A U8C G9A U11G C12A C13U],1.08
10,GGGUCGACAUGAGAUAAUCGCGUGGAUAUGGCACGCAAGUUUCUACCGGGCACCGUAAAUGUCCGACUGGAGCCGUUCGGGCGGCUAUAAACAGACCUCAGGCCCGAAGCGUGGCGGCACCUGCCGCCGGUGGUAAAAAAGAUCGGAAGAGCACACGUCU [U7A U8C G9A U11G C12A C13G],1.21
11,GGGUCGACAUCCGAUAAUCGCGUGGAUAUGGCACGCAAGUUUCUACCGGGCACCGUAAAUGUCCGACUGGAGCCGUUCGGGCGGCUAUAAACAGACCUCAGGCCCGAAGCGUGGCGGCACCUGCCGCCGGUGGUAAAAAAGAUCGGAAGAGCACACGUCU [U7A U8C G9A U11C C13G],1.08
12,GGGUCGACAUCCUAUAAUCGCGUGGAUAUGGCACGCAAGUUUCUACCGGGCACCGUAAAUGUCCGACUGGAGCCGUUCGGGCGGCUAUAAACAGACCUCAGGCCCGAAGCGUGGCGGCACCUGCCGCCGGUGGUAAAAAAGAUCGGAAGAGCACACGUCU [U7A U8C G9A U11C C13U],1.1
13,GGGUCGACAUCCAAUAAUCGCGUGGAUAUGGCACGCAAGUUUCUACCGGGCACCGUAAAUGUCCGACUGGAGCCGUUCGGGCGGCUAUAAACAGACCUCAGGCCCGAAGCGUGGCGGCACCUGCCGCCGGUGGUAAAAAAGAUCGGAAGAGCACACGUCU [U7A U8C G9A U11C C13A],1.06
14,GGGUCGACAUGCAAUAAUCGCGUGGAUAUGGCACGCAAGUUUCUACCGGGCACCGUAAAUGUCCGACUGGAGCCGUUCGGGCGGCUAUAAACAGACCUCAGGCCCGAAGCGUGGCGGCACCUGCCGCCGGUGGUAAAAAAGAUCGGAAGAGCACACGUCU [U7A U8C G9A U11G C13A],1.27
15,GGGUCGACAUGCUAUAAUCGCGUGGAUAUGGCACGCAAGUUUCUACCGGGCACCGUAAAUGUCCGACUGGAGCCGUUCGGGCGGCUAUAAACAGACCUCAGGCCCGAAGCGUGGCGGCACCUGCCGCCGGUGGUAAAAAAGAUCGGAAGAGCACACGUCU [U7A U8C G9A U11G C13U],1.22
16,GGGUCGACAUGCGAUAAUCGCGUGGAUAUGGCACGCAAGUUUCUACCGGGCACCGUAAAUGUCCGACUGGAGCCGUUCGGGCGGCUAUAAACAGACCUCAGGCCCGAAGCGUGGCGGCACCUGCCGCCGGUGGUAAAAAAGAUCGGAAGAGCACACGUCU [U7A U8C G9A U11G C13G],1.31
17,GGGUCGACCUUACAUAAUCGCGUGGAUAUGGCACGCAAGUUUCUACCGGGCACCGUAAAUGUCCGACUGGAGCCGUUCGGGCGGCUAUAAACAGACCUCAGGCCCGAAGCGUGGCGGCACCUGCCGCCGGUGGUAAAAAAGAUCGGAAGAGCACACGUCU [U7A U8C G9C C12A],1.12
18,GGGUCGACCUUGCAUAAUCGCGUGGAUAUGGCACGCAAGUUUCUACCGGGCACCGUAAAUGUCCGACUGGAGCCGUUCGGGCGGCUAUAAACAGACCUCAGGCCCGAAGCGUGGCGGCACCUGCCGCCGGUGGUAAAAAAGAUCGGAAGAGCACACGUCU [U7A U8C G9C C12G],1.09

row,Variant,aptazyme ON/OFF ratio
1,GGGUCGACCUUGAAUAAUCGCGUGGAUAUGGCACGCAAGUUUCUACCGGGCACCGUAAAUGUCCGACUGGAGCCGUUCGGGCGGCUAUAAACAGACCUCAGGCCCGAAGCGUGGCGGCACCUGCCGCCGGUGGUAAAAAAGAUCGGAAGAGCACACGUCU [U7A U8C G9C C12G C13A],1.07
2,GGGUCGACCUUGUAUAAUCGCGUGGAUAUGGCACGCAAGUUUCUACCGGGCACCGUAAAUGUCCGACUGGAGCCGUUCGGGCGGCUAUAAACAGACCUCAGGCCCGAAGCGUGGCGGCACCUGCCGCCGGUGGUAAAAAAGAUCGGAAGAGCACACGUCU [U7A U8C G9C C12G C13U],1.18
3,GGGUCGACCUUGGAUAAUCGCGUGGAUAUGGCACGCAAGUUUCUACCGGGCACCGUAAAUGUCCGACUGGAGCCGUUCGGGCGGCUAUAAACAGACCUCAGGCCCGAAGCGUGGCGGCACCUGCCGCCGGUGGUAAAAAAGAUCGGAAGAGCACACGUCU [U7A U8C G9C C12G C13G],1.09
4,GGGUCGACAUCUCAUAAUCGCGUGGAUAUGGCACGCAAGUUUCUACCGGGCACCGUAAAUGUCCGACUGGAGCCGUUCGGGCGGCUAUAAACAGACCUCAGGCCCGAAGCGUGGCGGCACCUGCCGCCGGUGGUAAAAAAGAUCGGAAGAGCACACGUCU [U7A U8C G9A U11C C12U],1.14
5,GGGUCGACAUCGCAUAAUCGCGUGGAUAUGGCACGCAAGUUUCUACCGGGCACCGUAAAUGUCCGACUGGAGCCGUUCGGGCGGCUAUAAACAGACCUCAGGCCCGAAGCGUGGCGGCACCUGCCGCCGGUGGUAAAAAAGAUCGGAAGAGCACACGUCU [U7A U8C G9A U11C C12G],1.24
6,GGGUCGACAUGGGAUAAUCGCGUGGAUAUGGCACGCAAGUUUCUACCGGGCACCGUAAAUGUCCGACUGGAGCCGUUCGGGCGGCUAUAAACAGACCUCAGGCCCGAAGCGUGGCGGCACCUGCCGCCGGUGGUAAAAAAGAUCGGAAGAGCACACGUCU [U7A U8C G9A U11G C12G C13G],1.31
7,GGGUCGACAUGGAAUAAUCGCGUGGAUAUGGCACGCAAGUUUCUACCGGGCACCGUAAAUGUCCGACUGGAGCCGUUCGGGCGGCUAUAAACAGACCUCAGGCCCGAAGCGUGGCGGCACCUGCCGCCGGUGGUAAAAAAGAUCGGAAGAGCACACGUCU [U7A U8C G9A U11G C12G C13A],1.19
8,GGGUCGACAUGGUAUAAUCGCGUGGAUAUGGCACGCAAGUUUCUACCGGGCACCGUAAAUGUCCGACUGGAGCCGUUCGGGCGGCUAUAAACAGACCUCAGGCCCGAAGCGUGGCGGCACCUGCCGCCGGUGGUAAAAAAGAUCGGAAGAGCACACGUCU [U7A U8C G9A U11G C12G C13U],1.15
9,GGGUCGACAUGCCAUAAUCGCGUGGAUAUGGCACGCAAGUUUCUACCGGGCACCGUAAAUGUCCGACUGGAGCCGUUCGGGCGGCUAUAAACAGACCUCAGGCCCGAAGCGUGGCGGCACCUGCCGCCGGUGGUAAAAAAGAUCGGAAGAGCACACGUCU [U7A U8C G9A U11G],1.28
10,GGGUCGACAUCGAAUAAUCGCGUGGAUAUGGCACGCAAGUUUCUACCGGGCACCGUAAAUGUCCGACUGGAGCCGUUCGGGCGGCUAUAAACAGACCUCAGGCCCGAAGCGUGGCGGCACCUGCCGCCGGUGGUAAAAAAGAUCGGAAGAGCACACGUCU [U7A U8C G9A U11C C12G C13A],1.13
11,GGGUCGACAUCGGAUAAUCGCGUGGAUAUGGCACGCAAGUUUCUACCGGGCACCGUAAAUGUCCGACUGGAGCCGUUCGGGCGGCUAUAAACAGACCUCAGGCCCGAAGCGUGGCGGCACCUGCCGCCGGUGGUAAAAAAGAUCGGAAGAGCACACGUCU [U7A U8C G9A U11C C12G C13G],1.07
12,GGGUCGACAUCGUAUAAUCGCGUGGAUAUGGCACGCAAGUUUCUACCGGGCACCGUAAAUGUCCGACUGGAGCCGUUCGGGCGGCUAUAAACAGACCUCAGGCCCGAAGCGUGGCGGCACCUGCCGCCGGUGGUAAAAAAGAUCGGAAGAGCACACGUCU [U7A U8C G9A U11C C12G C13U],1.16
13,GGGUCGACAUCUUAUAAUCGCGUGGAUAUGGCACGCAAGUUUCUACCGGGCACCGUAAAUGUCCGACUGGAGCCGUUCGGGCGGCUAUAAACAGACCUCAGGCCCGAAGCGUGGCGGCACCUGCCGCCGGUGGUAAAAAAGAUCGGAAGAGCACACGUCU [U7A U8C G9A U11C C12U C13U],1.19
14,GGGUCGACAUCUAAUAAUCGCGUGGAUAUGGCACGCAAGUUUCUACCGGGCACCGUAAAUGUCCGACUGGAGCCGUUCGGGCGGCUAUAAACAGACCUCAGGCCCGAAGCGUGGCGGCACCUGCCGCCGGUGGUAAAAAAGAUCGGAAGAGCACACGUCU [U7A U8C G9A U11C C12U C13A],1.22
15,GGGUCGACAUCUGAUAAUCGCGUGGAUAUGGCACGCAAGUUUCUACCGGGCACCGUAAAUGUCCGACUGGAGCCGUUCGGGCGGCUAUAAACAGACCUCAGGCCCGAAGCGUGGCGGCACCUGCCGCCGGUGGUAAAAAAGAUCGGAAGAGCACACGUCU [U7A U8C G9A U11C C12U C13G],1.16
16,GGGUCGACCUUAUAUAAUCGCGUGGAUAUGGCACGCAAGUUUCUACCGGGCACCGUAAAUGUCCGACUGGAGCCGUUCGGGCGGCUAUAAACAGACCUCAGGCCCGAAGCGUGGCGGCACCUGCCGCCGGUGGUAAAAAAGAUCGGAAGAGCACACGUCU [U7A U8C G9C C12A C13U],1.07
17,GGGUCGACCUUAGAUAAUCGCGUGGAUAUGGCACGCAAGUUUCUACCGGGCACCGUAAAUGUCCGACUGGAGCCGUUCGGGCGGCUAUAAACAGACCUCAGGCCCGAAGCGUGGCGGCACCUGCCGCCGGUGGUAAAAAAGAUCGGAAGAGCACACGUCU [U7A U8C G9C C12A C13G],1.14
18,GGGUCGACCUUAAAUAAUCGCGUGGAUAUGGCACGCAAGUUUCUACCGGGCACCGUAAAUGUCCGACUGGAGCCGUUCGGGCGGCUAUAAACAGACCUCAGGCCCGAAGCGUGGCGGCACCUGCCGCCGGUGGUAAAAAAGAUCGGAAGAGCACACGUCU [U7A U8C G9C C12A C13A],1.11
